# Test results reported in PMC10626209.
# Key:
# [1] = target: GFP-tagged SHROOM2 ASD2 domain (mouse protein 1,178–1,488 aa) (mouse); test: SPR
# [2] = target: preformed SHROOM2:ROCK1 complex (mouse | human) (UniProt Q13464); test: SPR
Kd [1] [nM],fold higher affinity than for the single domain (printed: ROCK1 alone) [2] [fold],Substance
1000,,GST-tagged ROCK1 SBD domain (834–913 aa) (from UniProt Q13464 834-913) (domain or fragment)
960,5,"GST-tagged SCRIB C-terminal fragment (1,478–1,630) (from UniProt Q14160 1478-1630) (domain or fragment)"
